System: Escherichia coli TOP10
Assay: shrunken log2 fold change of peptide-encoding DNA abundance (4.5 h post-induction vs induction); higher = less antimicrobial activity (less host growth inhibition)
Settings: time post-induction: 4.5 h; library: site-saturation at positions 5, 18, 19, 20
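Further: peptides expressed intracellularly from a pBAD plasmid library in pooled LB shake-flask culture, induced with 0.3% L-arabinose, DNA abundance read by NGS, three biological replicates, DESeq2 with apeglm shrinkage.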

Row | Sequence | shrunken log2 fold change
1 | RRIRYRPPRLPRPRPRPCCNPRP | 0.00367
2 | RRIRVRPPRLPRPRPRPDCCPRP | -0.0439
3 | RRIRCRPPRLPRPRPRPKQIPRP | 0.0104
4 | RRIRMRPPRLPRPRPRPPDHPRP | 0.456
5 | RRIRARPPRLPRPRPRPNFYPRP | 0.0801
6 | RRIRCRPPRLPRPRPRPTHGPRP | 0.000601
7 | RRIRARPPRLPRPRPRPCLQPRP | -0.0914
8 | RRIRKRPPRLPRPRPRPHPAPRP | 0.429
9 | RRIRPRPPRLPRPRPRPSKLPRP | -0.224
10 | RRIRTRPPRLPRPRPRPFQGPRP | -0.00192
11 | RRIRNRPPRLPRPRPRPQENPRP | -0.151
12 | RRIRPRPPRLPRPRPRPKPYPRP | -0.0782
13 | RRIRCRPPRLPRPRPRPLDQPRP | 0.221
14 | RRIRNRPPRLPRPRPRPPCTPRP | -0.234
15 | RRIRCRPPRLPRPRPRPQDFPRP | 0.0295
16 | RRIRIRPPRLPRPRPRPRVDPRP | 0.061
17 | RRIRVRPPRLPRPRPRPYRSPRP | -1.55
18 | RRIRSRPPRLPRPRPRPRTCPRP | 0.0915
19 | RRIRHRPPRLPRPRPRPNWHPRP | -0.242
20 | RRIRHRPPRLPRPRPRPTNRPRP | -0.162
21 | RRIRNRPPRLPRPRPRPDPDPRP | 0.0692
22 | RRIRCRPPRLPRPRPRPPQTPRP | 0.665
23 | RRIRTRPPRLPRPRPRPQTIPRP | -0.717
24 | RRIRPRPPRLPRPRPRPSADPRP | -0.0256
25 | RRIRDRPPRLPRPRPRPCCFPRP | 0.395

Row | Sequence | shrunken log2 fold change
26 | RRIRARPPRLPRPRPRPHKQPRP | -0.0718
27 | RRIRIRPPRLPRPRPRPQFFPRP | -0.304
28 | RRIRARPPRLPRPRPRPCVMPRP | -0.0813
29 | RRIRKRPPRLPRPRPRPYNSPRP | -0.49
30 | RRIRKRPPRLPRPRPRPELPPRP | 0.114
31 | RRIRIRPPRLPRPRPRPGSFPRP | -0.0206
32 | RRIRKRPPRLPRPRPRPVPQPRP | 0.313
33 | RRIRNRPPRLPRPRPRPESVPRP | -0.145
34 | RRIRYRPPRLPRPRPRPPMLPRP | -0.492
35 | RRIRFRPPRLPRPRPRPPYEPRP | -0.202
36 | RRIRWRPPRLPRPRPRPKSIPRP | -0.017
37 | RRIRHRPPRLPRPRPRPRQMPRP | -0.0208
38 | RRIRYRPPRLPRPRPRPCMYPRP | -0.101
39 | RRIRLRPPRLPRPRPRPSESPRP | -0.244
40 | RRIRWRPPRLPRPRPRPTEFPRP | -0.0793
41 | RRIRYRPPRLPRPRPRPIELPRP | -0.0405
42 | RRIRQRPPRLPRPRPRPVLEPRP | 0.198
43 | RRIRFRPPRLPRPRPRPLVVPRP | -0.0929
44 | RRIRDRPPRLPRPRPRPDSYPRP | -0.0336
45 | RRIRLRPPRLPRPRPRPFCFPRP | -0.213
46 | RRIRVRPPRLPRPRPRPSVAPRP | 0.595
47 | RRIRVRPPRLPRPRPRPCRTPRP | -1.03
48 | RRIRVRPPRLPRPRPRPKSAPRP | 0.172
49 | RRIRVRPPRLPRPRPRPFQYPRP | -0.453
50 | RRIRRRPPRLPRPRPRPRIGPRP | 0.0791

Row | Sequence | shrunken log2 fold change
51 | RRIRLRPPRLPRPRPRPPLWPRP | 0.447
52 | RRIRNRPPRLPRPRPRPFDAPRP | -0.106
53 | RRIRQRPPRLPRPRPRPPHFPRP | 0.00908
54 | RRIRERPPRLPRPRPRPNTQPRP | -0.187
55 | RRIRIRPPRLPRPRPRPSRAPRP | -0.212
56 | RRIRPRPPRLPRPRPRPFCGPRP | 0.00967
57 | RRIRVRPPRLPRPRPRPNLRPRP | 0.0738
58 | RRIRYRPPRLPRPRPRPGNAPRP | 0.0744
59 | RRIRCRPPRLPRPRPRPKVLPRP | 0.0115
60 | RRIRERPPRLPRPRPRPGMYPRP | -0.0383
61 | RRIRNRPPRLPRPRPRPLQNPRP | 0.176
62 | RRIRCRPPRLPRPRPRPHAYPRP | -0.759
63 | RRIRWRPPRLPRPRPRPRNTPRP | -0.0542
64 | RRIRFRPPRLPRPRPRPGHMPRP | -0.0911
65 | RRIRERPPRLPRPRPRPTYIPRP | -1.02
66 | RRIRSRPPRLPRPRPRPHVWPRP | 0.0587
67 | RRIRTRPPRLPRPRPRPDYYPRP | -0.356
68 | RRIRTRPPRLPRPRPRPYRKPRP | -0.0329
69 | RRIRQRPPRLPRPRPRPAQGPRP | -0.0366
70 | RRIRQRPPRLPRPRPRPNQIPRP | -0.371
71 | RRIRCRPPRLPRPRPRPTAGPRP | 0.411
72 | RRIRVRPPRLPRPRPRPPYLPRP | -0.0916
73 | RRIRGRPPRLPRPRPRPIDWPRP | 0.559
74 | RRIRIRPPRLPRPRPRPCPGPRP | -0.372
75 | RRIRERPPRLPRPRPRPWGQPRP | 0.115

Row | Sequence | shrunken log2 fold change
76 | RRIRRRPPRLPRPRPRPQTPPRP | 0.881
77 | RRIRARPPRLPRPRPRPDYNPRP | -0.57
78 | RRIRPRPPRLPRPRPRPHCFPRP | -0.497
79 | RRIRARPPRLPRPRPRPLPEPRP | 0.542
80 | RRIRRRPPRLPRPRPRPFWQPRP | 0.0221
81 | RRIRLRPPRLPRPRPRPPLLPRP | 0.158
82 | RRIRPRPPRLPRPRPRPQVFPRP | 0.0117
83 | RRIRPRPPRLPRPRPRPTTHPRP | 0.0944
84 | RRIRHRPPRLPRPRPRPRVVPRP | 0.072
85 | RRIRTRPPRLPRPRPRPDWVPRP | 0.0189
86 | RRIRVRPPRLPRPRPRPGCYPRP | -0.112
87 | RRIRYRPPRLPRPRPRPWAIPRP | 0.0155
88 | RRIRIRPPRLPRPRPRPPCMPRP | -0.169
89 | RRIRHRPPRLPRPRPRPMFIPRP | -0.0886
90 | RRIRYRPPRLPRPRPRPQCVPRP | -0.127
91 | RRIRKRPPRLPRPRPRPHHFPRP | -0.0062
92 | RRIRGRPPRLPRPRPRPLELPRP | 0.741
93 | RRIRNRPPRLPRPRPRPHLLPRP | -1.08
94 | RRIRPRPPRLPRPRPRPFAWPRP | 0.169
95 | RRIRERPPRLPRPRPRPGAWPRP | -0.0396
96 | RRIRFRPPRLPRPRPRPSWAPRP | -0.308
97 | RRIRNRPPRLPRPRPRPDSMPRP | -0.0386
98 | RRIRERPPRLPRPRPRPWPDPRP | -0.0169
99 | RRIRPRPPRLPRPRPRPCQQPRP | -0.119
100 | RRIRTRPPRLPRPRPRPNTEPRP | -0.011

Row | Sequence | shrunken log2 fold change
101 | RRIRQRPPRLPRPRPRPGGYPRP | 0.144
102 | RRIRWRPPRLPRPRPRPRKNPRP | 0.0168
103 | RRIRHRPPRLPRPRPRPGTGPRP | -0.0184
104 | RRIRSRPPRLPRPRPRPHGMPRP | -0.21
105 | RRIRQRPPRLPRPRPRPVYTPRP | -0.143
106 | RRIRFRPPRLPRPRPRPLEYPRP | -0.474
107 | RRIRNRPPRLPRPRPRPWWRPRP | -0.0647
108 | RRIRSRPPRLPRPRPRPEKWPRP | 0.0431
109 | RRIRRRPPRLPRPRPRPDWYPRP | 0.0693
110 | RRIRHRPPRLPRPRPRPNGWPRP | 0.42
111 | RRIRYRPPRLPRPRPRPQQFPRP | -0.397
112 | RRIRPRPPRLPRPRPRPLAFPRP | -0.0389
113 | RRIRWRPPRLPRPRPRPWAQPRP | -0.381
114 | RRIRIRPPRLPRPRPRPMTDPRP | -0.91
115 | RRIRWRPPRLPRPRPRPQSFPRP | -0.108
116 | RRIRTRPPRLPRPRPRPKCTPRP | -0.0569
117 | RRIRMRPPRLPRPRPRPREHPRP | 0.402
118 | RRIRNRPPRLPRPRPRPCFAPRP | 0.0964
119 | RRIRWRPPRLPRPRPRPQSGPRP | 0.186
120 | RRIRQRPPRLPRPRPRPNCWPRP | 0.0822
121 | RRIRTRPPRLPRPRPRPERFPRP | 0.0107
122 | RRIRGRPPRLPRPRPRPGIIPRP | 0.0469
123 | RRIRCRPPRLPRPRPRPPHHPRP | 0.352
124 | RRIRTRPPRLPRPRPRPGQRPRP | 0.118
125 | RRIRIRPPRLPRPRPRPTKEPRP | 0.0462

Row | Sequence | shrunken log2 fold change
126 | RRIRMRPPRLPRPRPRPQTAPRP | 0.524
127 | RRIRERPPRLPRPRPRPLGCPRP | -0.166
128 | RRIRDRPPRLPRPRPRPMTEPRP | 0.0462
129 | RRIRYRPPRLPRPRPRPWNPPRP | -0.00498
130 | RRIRYRPPRLPRPRPRPKTTPRP | -0.0197
131 | RRIRQRPPRLPRPRPRPPSYPRP | -0.0228
132 | RRIRSRPPRLPRPRPRPVVCPRP | -0.0186
133 | RRIRYRPPRLPRPRPRPFLLPRP | -1.19
134 | RRIRWRPPRLPRPRPRPDDCPRP | -0.0829
135 | RRIRWRPPRLPRPRPRPGWEPRP | 0.292
136 | RRIRPRPPRLPRPRPRPQPEPRP | 0.47
137 | RRIRLRPPRLPRPRPRPPSLPRP | 0.0267
138 | RRIRARPPRLPRPRPRPIFMPRP | 0.104
139 | RRIRERPPRLPRPRPRPPIKPRP | -0.414
140 | RRIRARPPRLPRPRPRPVMFPRP | 0.283
141 | RRIRWRPPRLPRPRPRPKAMPRP | 0.176
142 | RRIRLRPPRLPRPRPRPDQWPRP | -0.158
143 | RRIRWRPPRLPRPRPRPLPCPRP | 0.118
144 | RRIRDRPPRLPRPRPRPAPTPRP | 0.684
145 | RRIRYRPPRLPRPRPRPNLAPRP | -0.0223
146 | RRIRIRPPRLPRPRPRPHEDPRP | -0.182
147 | RRIRMRPPRLPRPRPRPRFCPRP | 1.63
148 | RRIRNRPPRLPRPRPRPMLMPRP | -0.0217
149 | RRIRARPPRLPRPRPRPVGTPRP | 0.441
150 | RRIRFRPPRLPRPRPRPCNIPRP | 0.0928

— the supplement of paper PMC9112550, “Optimization of the antimicrobial peptide Bac7 by deep mutational scanning” (BMC Biology, 2022)
